Test results from patent US20260242839A1, “GLYCOSIDE PRODUCT BIOSYNTHESIS AND RECOVERY” (Manus Bio Inc., priority 2023, published 2026).

system: steviol glycoside; test: steviol glycoside bioconversion by E. coli expressing individual mutations of UGT SEQ ID NO: 14; type: cell-based; conditions: fold improvement of % conversion vs parent UGT SEQ ID NO: 14; stevia leaf extract and glucose fed; 37° C., 48 hr
Method in brief: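 E. coli strains expressing single mutants of the parent UGT were fed stevia leaf extract and glucose and incubated at 37 °C for 48 hr. Steviol glycoside conversion was quantified by reverse-phase LC-DAD. Fold improvement is relative to % conversion by the parent enzyme.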

| Molecule | FI %Stevioside→rebE | FI %rebA→rebD |
| --- | --- | --- |
| ins_A2_T3_RR: SEQ ID NO: 14 with insertion of Arg-Arg between A2 and T3 (protein) MARRTKNSSGMSLAERFWLTLSRSSLVVGRSCVEFEPETVPLLSTLRGKPITFLGLMPPLHEGRREDGEDATVRWLDAQPAKSVVYVALGSEVPLGVEKVHELALGLELAGTRFLWALRKPTGVSDADLLPAGFEERTRGRGVVATRWVPQMSILAHAAVGAFLTHCGWNSTIEGLMFGHPLIMLPITGDQGPNARLIEAKNAGLQVARNDGDGSFDREGVAAAIRAVAVEEESSKVFQAKAKKLQEIVADMACHERYIDGFIQQLRSYKDDSGYSSSYAAAAGMHVVICPWLAFGHLLPCLDLAQRLASRGHRVSFVSTPRNISRLPPVRPALAPLVAFVALPLPRVEGLPDGAESTNDVPHDRPDMVELHRRAFDGLAAPFSEFLGTACADWVIVDSFHHWAAAAALEHKVPCAMMLLGSAEMIASIADERLEHAETESPAAAGQGRPAAAPTFEVARMKLIR | 2.4 | 2.0 |
| F51W: mutation to UGT enzyme of SEQ ID NO: 14 (protein) MATKNSSGMSLAERFWLTLSRSSLVVGRSCVEFEPETVPLLSTLRGKPITWLGLMPPLHEGRREDGEDATVRWLDAQPAKSVVYVALGSEVPLGVEKVHELALGLELAGTRFLWALRKPTGVSDADLLPAGFEERTRGRGVVATRWVPQMSILAHAAVGAFLTHCGWNSTIEGLMFGHPLIMLPITGDQGPNARLIEAKNAGLQVARNDGDGSFDREGVAAAIRAVAVEEESSKVFQAKAKKLQEIVADMACHERYIDGFIQQLRSYKDDSGYSSSYAAAAGMHVVICPWLAFGHLLPCLDLAQRLASRGHRVSFVSTPRNISRLPPVRPALAPLVAFVALPLPRVEGLPDGAESTNDVPHDRPDMVELHRRAFDGLAAPFSEFLGTACADWVIVDSFHHWAAAAALEHKVPCAMMLLGSAEMIASIADERLEHAETESPAAAGQGRPAAAPTFEVARMKLIR | 1.7 | 1.4 |
| A130D: mutation to UGT enzyme of SEQ ID NO: 14 (protein) MATKNSSGMSLAERFWLTLSRSSLVVGRSCVEFEPETVPLLSTLRGKPITFLGLMPPLHEGRREDGEDATVRWLDAQPAKSVVYVALGSEVPLGVEKVHELALGLELAGTRFLWALRKPTGVSDADLLPDGFEERTRGRGVVATRWVPQMSILAHAAVGAFLTHCGWNSTIEGLMFGHPLIMLPITGDQGPNARLIEAKNAGLQVARNDGDGSFDREGVAAAIRAVAVEEESSKVFQAKAKKLQEIVADMACHERYIDGFIQQLRSYKDDSGYSSSYAAAAGMHVVICPWLAFGHLLPCLDLAQRLASRGHRVSFVSTPRNISRLPPVRPALAPLVAFVALPLPRVEGLPDGAESTNDVPHDRPDMVELHRRAFDGLAAPFSEFLGTACADWVIVDSFHHWAAAAALEHKVPCAMMLLGSAEMIASIADERLEHAETESPAAAGQGRPAAAPTFEVARMKLIR | 1.4 | 1.3 |
| M250D_A251E_C252V: mutation to UGT enzyme of SEQ ID NO: 14 (protein) MATKNSSGMSLAERFWLTLSRSSLVVGRSCVEFEPETVPLLSTLRGKPITFLGLMPPLHEGRREDGEDATVRWLDAQPAKSVVYVALGSEVPLGVEKVHELALGLELAGTRFLWALRKPTGVSDADLLPAGFEERTRGRGVVATRWVPQMSILAHAAVGAFLTHCGWNSTIEGLMFGHPLIMLPITGDQGPNARLIEAKNAGLQVARNDGDGSFDREGVAAAIRAVAVEEESSKVFQAKAKKLQEIVADDEVHERYIDGFIQQLRSYKDDSGYSSSYAAAAGMHVVICPWLAFGHLLPCLDLAQRLASRGHRVSFVSTPRNISRLPPVRPALAPLVAFVALPLPRVEGLPDGAESTNDVPHDRPDMVELHRRAFDGLAAPFSEFLGTACADWVIVDSFHHWAAAAALEHKVPCAMMLLGSAEMIASIADERLEHAETESPAAAGQGRPAAAPTFEVARMKLIR | 1.5 | 1.4 |
| S42E: mutation to UGT enzyme of SEQ ID NO: 14 (protein) MATKNSSGMSLAERFWLTLSRSSLVVGRSCVEFEPETVPLLETLRGKPITFLGLMPPLHEGRREDGEDATVRWLDAQPAKSVVYVALGSEVPLGVEKVHELALGLELAGTRFLWALRKPTGVSDADLLPAGFEERTRGRGVVATRWVPQMSILAHAAVGAFLTHCGWNSTIEGLMFGHPLIMLPITGDQGPNARLIEAKNAGLQVARNDGDGSFDREGVAAAIRAVAVEEESSKVFQAKAKKLQEIVADMACHERYIDGFIQQLRSYKDDSGYSSSYAAAAGMHVVICPWLAFGHLLPCLDLAQRLASRGHRVSFVSTPRNISRLPPVRPALAPLVAFVALPLPRVEGLPDGAESTNDVPHDRPDMVELHRRAFDGLAAPFSEFLGTACADWVIVDSFHHWAAAAALEHKVPCAMMLLGSAEMIASIADERLEHAETESPAAAGQGRPAAAPTFEVARMKLIR | 1.8 | 1.3 |
| A79P: mutation to UGT enzyme of SEQ ID NO: 14 (protein) MATKNSSGMSLAERFWLTLSRSSLVVGRSCVEFEPETVPLLSTLRGKPITFLGLMPPLHEGRREDGEDATVRWLDAQPPKSVVYVALGSEVPLGVEKVHELALGLELAGTRFLWALRKPTGVSDADLLPAGFEERTRGRGVVATRWVPQMSILAHAAVGAFLTHCGWNSTIEGLMFGHPLIMLPITGDQGPNARLIEAKNAGLQVARNDGDGSFDREGVAAAIRAVAVEEESSKVFQAKAKKLQEIVADMACHERYIDGFIQQLRSYKDDSGYSSSYAAAAGMHVVICPWLAFGHLLPCLDLAQRLASRGHRVSFVSTPRNISRLPPVRPALAPLVAFVALPLPRVEGLPDGAESTNDVPHDRPDMVELHRRAFDGLAAPFSEFLGTACADWVIVDSFHHWAAAAALEHKVPCAMMLLGSAEMIASIADERLEHAETESPAAAGQGRPAAAPTFEVARMKLIR | 1.4 | 1.3 |
| W401F: mutation to UGT enzyme of SEQ ID NO: 14 (protein) MATKNSSGMSLAERFWLTLSRSSLVVGRSCVEFEPETVPLLSTLRGKPITFLGLMPPLHEGRREDGEDATVRWLDAQPAKSVVYVALGSEVPLGVEKVHELALGLELAGTRFLWALRKPTGVSDADLLPAGFEERTRGRGVVATRWVPQMSILAHAAVGAFLTHCGWNSTIEGLMFGHPLIMLPITGDQGPNARLIEAKNAGLQVARNDGDGSFDREGVAAAIRAVAVEEESSKVFQAKAKKLQEIVADMACHERYIDGFIQQLRSYKDDSGYSSSYAAAAGMHVVICPWLAFGHLLPCLDLAQRLASRGHRVSFVSTPRNISRLPPVRPALAPLVAFVALPLPRVEGLPDGAESTNDVPHDRPDMVELHRRAFDGLAAPFSEFLGTACADWVIVDSFHHFAAAAALEHKVPCAMMLLGSAEMIASIADERLEHAETESPAAAGQGRPAAAPTFEVARMKLIR | 1.3 | 1.3 |
| S323A: mutation to UGT enzyme of SEQ ID NO: 14 (protein) MATKNSSGMSLAERFWLTLSRSSLVVGRSCVEFEPETVPLLSTLRGKPITFLGLMPPLHEGRREDGEDATVRWLDAQPAKSVVYVALGSEVPLGVEKVHELALGLELAGTRFLWALRKPTGVSDADLLPAGFEERTRGRGVVATRWVPQMSILAHAAVGAFLTHCGWNSTIEGLMFGHPLIMLPITGDQGPNARLIEAKNAGLQVARNDGDGSFDREGVAAAIRAVAVEEESSKVFQAKAKKLQEIVADMACHERYIDGFIQQLRSYKDDSGYSSSYAAAAGMHVVICPWLAFGHLLPCLDLAQRLASRGHRVSFVSTPRNIARLPPVRPALAPLVAFVALPLPRVEGLPDGAESTNDVPHDRPDMVELHRRAFDGLAAPFSEFLGTACADWVIVDSFHHWAAAAALEHKVPCAMMLLGSAEMIASIADERLEHAETESPAAAGQGRPAAAPTFEVARMKLIR | 1.3 | 1.3 |
